From publication PMC9288967 come the findings set out here.

The experiment addresses SARS-CoV-2 spike RBD (wild type) (SARS-CoV-2) (UniProt P0DTC2). Description: cross-linking.

mNb6(108FFY) (VHH): the kobs (apparent first-order constant of cross-linking) was 0.244 h⁻¹.
With mNb6(108FSY) (VHH), the kobs (apparent first-order constant of cross-linking) is 0.102 h⁻¹.
